Data set [1] has as its target hemoglobin A1c, P68871.
The target of data set [2] is T1, α-fructosyl-valyl-histidine.
T1 chain: VH

The target in data set [3] is T2, α-fructosyl-valyl-histidyl-leucyl-threonyl-proryl-glutamic acid.
T2 chain: VHLTPE
The note with it: for αF6P oxidation activity: scale: relative value.

Substitutions are numbered along the chain they refer to.

hemoglobin A1c, P68871, sequence (P68871 2-147, chain 1 of 2): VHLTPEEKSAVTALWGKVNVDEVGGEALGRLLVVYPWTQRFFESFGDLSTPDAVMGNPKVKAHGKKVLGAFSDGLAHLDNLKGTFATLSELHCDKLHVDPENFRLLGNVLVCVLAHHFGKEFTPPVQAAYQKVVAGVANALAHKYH
hemoglobin A1c, P68871, sequence (chain, as listed by the source, chain 2 of 2): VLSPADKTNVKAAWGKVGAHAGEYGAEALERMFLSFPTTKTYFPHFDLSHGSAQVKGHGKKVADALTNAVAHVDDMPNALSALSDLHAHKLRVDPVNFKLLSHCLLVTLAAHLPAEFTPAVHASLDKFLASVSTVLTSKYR

B1: CFP-T7 (protein)
chain: MTSNRADTRVIVVGGGGTIGSSTALHLVRSGYAPANITVLDTFEIPSAQSAGHDLNKIMGIRLRNKVDLQMSLEARQMWKEDELFQPFFHNTGRMDCEHTPEGIEDLKKQYQALHDAGAGLEKTHAWLDNEDEILSKMPLLQRDQIQGWKAIWSQDGGWLAAAKAINAIGQFLKERGVKFGFGGAGSFKQPLFDDEGTTCIGVETADGTKYYADKVVLAAGAWSPTLVDLEDQCCSKAWVYAHIQLTPEEAAEYKGVPVVYNGEFGFFFEPDEFGVIKVCDEFPGFSRFKEHQPYGAPSPKRISVPRSHAKHPTDTYPDASEVSIKKAIATFLPRFQDKELFNRALCWCTDTADAALLMCEHPKWKNFILATGDSGHSFKILPNVGKYVVELIEGRLPEEMAYQWRWRPGGDALKSRRAAPPKDLADMPGWKHDPKL
B1: the “ΔA at 751 nm (hydrogen peroxide generated upon oxidation of the HbA1c β-chain amino terminus) against HbA1c concentration; heat-treated sample” value in data set [1] was “When Reagent C2 was used, however, no correlation was observed between the HbA1c concentration and ΔA”. Moreover, in data set [2], the Specific activity (U/mg), 1 mM αFVH stood at 16.5 U/mg; the αFVH oxidation activity entry is “CFP-T7 exhibited αFV oxidation activity and αFVH oxidation activity”. In data set [3], the Specific activity (U/mg), 1 mM αF6P was 0 U/mg and the αF6P oxidation activity was 0.

B2: CFP-T7-62D (protein)
chain: B1 chain with R62D
In data set [2], B2 had a Specific activity (U/mg), 1 mM αFVH of 1.62 U/mg. Besides, in data set [3], the Specific activity (U/mg), 1 mM αF6P came out at 0.018 U/mg and the “specific activity on αF6P, fold over PnFX (Comparative Example 3)” value was 2 times (Amadoriase 26/Comparative Example 3).

B3: CFP-T7-H35 (protein)
chain: B1 chain with R62D, L63H, E102K, D106K, Q110L, A113K, A355S
On to B3, for which, in data set [1], the “ΔA at 751 nm (hydrogen peroxide generated upon oxidation of the HbA1c β-chain amino terminus) against HbA1c concentration; heat-treated sample” value was “When Reagent C1 was used, a good correlation was established between the HbA1c concentration and ΔA”; the “ΔA at 751 nm against HbA1c concentration; acid-treated sample (Reagent D1 or D2, Reagent F1)” value is “In both cases where the sample was diluted with either Reagent D1 or Reagent D2, a good correlation was established between the HbA1c concentration and ΔA”. The Specific activity (U/mg), 1 mM αFVH in data set [2] amounted to 1.9 U/mg. In data set [3], the Specific activity (U/mg), 1 mM αF6P amounted to 4.27 U/mg; the “specific activity on αF6P, fold over FAOAo2 (Comparative Example 2)” value is 1.940 times (Amadoriase 25/Comparative Example 2); the αF6P oxidation activity ratio (relative value (CFP-T7-H28 = 100)) came to 206.

B4: CFP-T7-H1 (protein)
chain: B1 chain with R62A
For the protein B4, the αFVH oxidation activity entry in data set [2] is “exhibited αF6P oxidation activity, in addition αFV oxidation activity and αFVH oxidation activity”. In addition, in data set [3], the αF6P oxidation activity is 0.0316.

B5: CFP-T7-H20 (protein)
chain: B1 chain with R62D, D106K, Q110L, A113K
In data set [2], B5 had a Specific activity (U/mg), 1 mM αFVH of 4.28 U/mg. Further, in data set [3], the Specific activity (U/mg), 1 mM αF6P came out at 0.85 U/mg; the αF6P oxidation activity ratio (relative value (CFP-T7-H20 = 100)) worked out at 100; the αF6P oxidation activity turned out to be 20.5.

B6: CFP-T7-H4 (protein)
chain: B1 chain with R62A, Q110Y
B6 yielded a αF6P oxidation activity in data set [3] of 0.0341.

B7: CFP-T7-H3 (protein)
chain: B1 chain with R62A, Q110F
In turn, B7 had a αF6P oxidation activity in data set [3] of 0.0298.

B8: CFP-T7-H21 (protein)
chain: B1 chain with R62D, D106K, Q110L, A113R
As for B8, the Specific activity (U/mg), 1 mM αFVH in data set [2] amounted to 4.05 U/mg. In data set [3], the Specific activity (U/mg), 1 mM αF6P was 0.795 U/mg and the αF6P oxidation activity was 20.8.

B9: EFP-T5-62D/63H/106K/110L/113K/355S (protein)
chain: MAHSRASTKVVVVGGGGTIGSSTALHLIRSGYTPSNITVLDVYKTPSLQSAGHDLNKIMGIDHRNGPDLQLSLESLDMWQNDELFKPFFHQVGMIDCSSSKEGIEKLRRLYQKLLDAGIGLEKTNVWLESEDEILAKAPNFTREQVKGWKGLFCTDGGWLAAAKAINAIGIFLQDKGVKFGFGDAGTFQQPLFAADGKTCIGLETTDGTKYFADKVVLAAGAWSPTLVDLEDQCVSKAWVFAHIQLTPKEADAYKNVPVVYDGEYGFFFEPDEYGVIKVCDEFPGFSRFKLHQPYGAASPKMISVPRSHAKHPTDTYPDASEVTIRKAIARFLPEFKDKELFNRTMCWCTDTADSNLLICEHPKWKNFILATGDSGHSFKLLPNIGKYVVELLEGSLSQEMAGAWRWRPGGDALRSRRGAPAKDLAEMPGWKHDAHL
Consider B9, for which the “ΔA at 751 nm against HbA1c concentration; acid-treated sample (Reagent D1, Reagent F2)” value in data set [1] is reported as “Amadoriase 28 from EFP-T5 exhibiting high specific activity on αF6P was also found to act directly on HbA1c (FIG. 6-3)”. The Specific activity (U/mg), 1 mM αF6P in data set [3] stood at 1.12 U/mg.

B10: amadoriase exhibiting 95% sequence identity with ketoamine oxidase derived from Curvularia clavata (protein)
chain: MAPSRANTSVIVVGGGGTIGSSTALHLVRSGYTPSNITVLDAYPIPSSQSAGNDLNKIMGIRLRNKVDLQLSLEARQMWREDDLFKEYFHNTGRLDCAHGEEGLADLRQAYQALLDANAGLEETTEWLDSEDEILKKMPLLSRDQIKGWKAVYSQDGGWLAAAKAINAIGEYLRAQGVKFGFGGAGSFKQPLLAEGVCIGVETVDGTRYYADKVVLAAGAWSPTLVELHEQCVSKAWVYGHIQLTPEEAAEYKNSPVVYNGDVGFFFEPNEHGVIKVCDEFPGFTRFKMHQPFGAKAPKRISVPRSHAKHPTDTIPDASEKSIRKAIATFLPKFTEKELFNRHLCWCTDTADAALLICEHPEWKNFVLATGDSGHSFKLLPNIGKHVVELLEGTLADDLAHAWRWRPGSGDALKSRRSAPAKDLADMPGWKHDDVVKSKL
As for B10, the αF6P oxidation activity in data set [3] is 0.

B11: Cc95FX-62D/63H/106K/110L/113K/353S (protein)
chain: B10 chain with R62D, L63H, D106K, A110L, A113K, A353S
B11 gave a αF6P oxidation activity in data set [3] of 237.

B12: CFP-DH2 (protein)
chain: MTSNRADTRVIVVGGGGTIGSSTALHLVRSGYAPANITVLDTFPIPSAQSAGHDLNKIMGIDHRNKVNLQMSLEARQMWKEDELFQPFFHNTGRMDCEHTPKGIEKLKKLYQKLHDAGAGLEKTHAWLDNEDAILSKMPLLQRDQIQGWKAIWSQDGGWLAAAKAINAIGQFLKERGVKFGFGGAGSFKQPLFDDEGTTCIGVETADGTKYYADKVVLAAGAWSPTLVDLEDQCCSKAWVYAHIQLTPEEAAKYKGCPVVYHGEFGFFFEPDEFGVIKVCDEFPGFSRFKEHQPYGAPSPKRISVPRSHAKHPTDTYPDASEVSIKKAIATFLPRFKDKPLFNRALCWCTDTADSTLLMCEHPKWKNFILATGDSGHSFKILPNVGKYVVELIEGRLPEEMAYQWRWRPGGDALKSRRAAPPKDLADMPGWKHD
In the case of B12, the “ΔA at 751 nm against HbA1c concentration; cationic-surfactant-treated sample (Reagent G1 or G2)” value in data set [1] is “In both cases where the sample was diluted with either Reagent G1 or Reagent G2, a good correlation was established between the HbA1c concentration and ΔA”. Besides, the Specific activity (U/mg), 1 mM αF6P in data set [3] was found to be 5.3 U/mg.

B13: PnFX-62D/63H/106K/110L/113K/351S (protein)
chain: MAPSRANTSVIVVGGGGTIGSSTALHLVRSGYTPSNVTVLDAYPIPSSQSAGNDLNKIMGVDHRNPVDLQLALEARQMWNEDELFKKFFHNTGRLDCAHGEKDIAKLKSLYQKLVDAGLDATNEWLDSEDEILKRMPLLSRDQIKGWKAIFSKDGGWLAAAKAINAVGEYLRDQGVRFGFYGAGSFKAPLLAEGVCIGVETVDGTRYYADKVVLAAGAWSPTLVELHEQCVSKAWVYGHIQLTPEEAARYKNSPVVYNGDVGFFFEPNEHGVIKVCDEFPGFTRFKMHQPFGAKAPKRISVPRSHAKHPTDTIPDASDVSIRRAIATFMPQFKNKKMFNQAMCWCTDTADSALLICEHPEWKNFVLATGDSGHSFKLLPNIGKHVVELLEGTLADDLAHAWRWRPGSGDALKSRRSAPAKDLADMPGWNHDKPRANL
B13: the Specific activity (U/mg), 1 mM αF6P in data set [3] was determined as 0.667 U/mg.
